{"source": "patent US20220259328A1", "about": "(Kyowa Kirin, published 2022)", "binders": {"B1": {"name": "R1090S55A (monoclonal phage clone displaying scFv) (scFv, V domains shown)", "VH": "EVQLVQSGAEVKKPGESLKISCKGSGYSFIIYWIGWVRQMPGKGLEWMGIIYPNDADTRYSPSFQGQVTISADKSISTAYLQWSSLKASDTAMYYCVRLGTRDWFDPWGQGTLVTVSS", "VL": "not shown", "notes": "also called anti-CD40 antibody R1090S55A"}}, "key": {"monkey CD40-GST": {"target": "T1, monkey CD40-GST (monkey, UniProt P25942 21-193 (human entry))", "T1 construct": "also called monkey CD40-GST protein; not shown: GST region of the N5 vector", "T1 chain": "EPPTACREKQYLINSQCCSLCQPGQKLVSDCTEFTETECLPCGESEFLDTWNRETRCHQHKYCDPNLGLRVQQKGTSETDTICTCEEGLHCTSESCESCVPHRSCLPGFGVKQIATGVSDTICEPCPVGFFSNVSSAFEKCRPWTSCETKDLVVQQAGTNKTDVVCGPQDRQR", "experiment": "phage ELISA on immobilized monkey CD40-GST, anti-M13-HRP detection", "description": "(§1) In the ELISA, MAXISORP (manufactured by NUNC, Inc.) in which the human or monkey CD40-GST in Example 1 was immobilized on each well and a portion to which the human or monkey CD40-GST is not bound was blocked using SuperBlock Blockig Buffer (manufactured by Thermo Fisher. Inc.) was used. To each well, each phage clone was added and reacted at room temperature for 30 minutes, and thereafter, each well was washed 3 times with PBS-T."}, "human CD40-GST": {"target": "T2, human CD40-GST (human, UniProt P25942 21-193)", "T2 construct": "also called human CD40-GST protein; not shown: GST region of the N5 vector", "experiment": "phage ELISA on immobilized human CD40-GST, anti-M13-HRP detection", "description": "as §1"}}, "data": [{"binder": "B1", "values": [{"measurement": "binding result", "setting": "monkey CD40-GST", "result": "binds"}, {"measurement": "binding result", "setting": "human CD40-GST", "result": "binds"}]}]}
